Measured values published in US20150306181A1 (BOARD OF REGENTS OF THE UNIVERSITY OF NEBRASKA, published 2015).

T1: mouse leptin receptor-Fc chimera (mouse; human, UniProt P48356 22-839)
T1 construct: extracellular domain; Bought from R&D Systems; Captured on a protein G sensor chip through its Fc; also called ObR-Fc; chimera leptin receptor; not shown: human Fc fragment, printed as 'human protein G Fc fragment'
T1 sequence (looked up): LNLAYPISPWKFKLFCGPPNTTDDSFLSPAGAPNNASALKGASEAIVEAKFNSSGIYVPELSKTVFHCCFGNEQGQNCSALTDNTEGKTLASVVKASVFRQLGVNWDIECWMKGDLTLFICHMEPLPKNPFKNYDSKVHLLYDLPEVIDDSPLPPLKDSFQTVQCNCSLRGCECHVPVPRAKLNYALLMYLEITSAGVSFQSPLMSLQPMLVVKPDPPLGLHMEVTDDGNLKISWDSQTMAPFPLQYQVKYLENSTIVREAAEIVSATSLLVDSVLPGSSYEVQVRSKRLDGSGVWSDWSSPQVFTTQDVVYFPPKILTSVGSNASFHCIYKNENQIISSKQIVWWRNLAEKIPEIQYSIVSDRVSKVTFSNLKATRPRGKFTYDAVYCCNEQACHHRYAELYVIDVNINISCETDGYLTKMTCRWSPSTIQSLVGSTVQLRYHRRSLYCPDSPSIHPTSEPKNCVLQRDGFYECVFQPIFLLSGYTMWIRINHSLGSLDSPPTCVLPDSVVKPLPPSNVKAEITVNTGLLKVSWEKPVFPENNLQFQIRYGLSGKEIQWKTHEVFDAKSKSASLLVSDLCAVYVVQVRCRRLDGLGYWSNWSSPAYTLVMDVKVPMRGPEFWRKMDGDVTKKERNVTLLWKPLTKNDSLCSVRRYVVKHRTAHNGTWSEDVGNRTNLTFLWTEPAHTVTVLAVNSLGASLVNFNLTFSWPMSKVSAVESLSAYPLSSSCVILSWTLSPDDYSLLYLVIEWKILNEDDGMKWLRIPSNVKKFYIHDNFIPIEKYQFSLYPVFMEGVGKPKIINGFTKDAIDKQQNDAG

B1: Mouse leptin (ligand, UniProt P41160 22-167, looked up)
chain: VPIQKVQDDTKTLIKTIVTRINDISHTQSVSAKQRVTGLDFIPGLHPILSLSKMDQTLAVYQQVLTSLPSQNVLQIANDLENLRDLLHLLAFSKSCSLPQTSGLQKPESLDGVLEASLYSTEVVALSRLQGSLQDILQQLDVSPEC
notes: Also tested as a non-covalent 1:1 mixture with free Pluronic P85 ('Leptin + P85'); Those rows use this molecule and name the mixture under assay; The preparation held monomer and dimer on SDS-PAGE; also called native leptin; mu-leptin
B2: Leptin-POx conjugate (ligand, UniProt P41160 22-167, looked up)
chain: B1 chain
modifications: P(MeOx50-b-BuOx20) poly(2-oxazoline) chains on amino groups through the DSP linker; modification degree 6.0 per leptin monomer by TNBS assay
notes: SEC-purified mixture of forms with different numbers of POx chains, with some unmodified monomer and dimer; also called leptin-P(MeOx-b-BuOx); leptipox
B3: Lep-(ss)-P85(2.3), 33 min (ligand, mouse, UniProt P41160 22-167, looked up)
chain: B1 chain
modifications: one Pluronic P85 chain on a lysine amino group through the DSP (disulfide) linker; position not determined
notes: HIC fraction collected at 33 min, said to contain leptin modified with one P85 chain; also called Lep-(ss)-P85(2.3) purified by HIC (33 minutes); HIC-purified Lep-(ss)-P85(2.3)
B4: Lep-(nc)-P85(2) (ligand, mouse, UniProt P41160 22-167, looked up)
chain: B1 chain
modifications: one Pluronic P85 chain on the N-terminal alpha amino group by reductive amination with mono-aldehyde-P85
notes: the rest is unmodified leptin; also called N-terminal modified Lep-(nc)-P85(2)
B5: Lep-(ss)-P85(1) reduced (ligand, mouse, UniProt P41160 22-167, looked up)
chain: B1 chain
modifications: Pluronic P85 chains on lysine amino groups through the DSP linker, partly cleaved by 6 mM L-glutathione; a linker remainder is left on cleaved sites
notes: Lep-(ss)-P85(1) dialysed against 6 mM L-glutathione in PBS with 20% ethanol; Some but not all P85 chains were cleaved; also called reduced form of Lep-(ss)-P85(1)
B6: Lep-(ss)-P85(2.1) reduced (ligand, mouse, UniProt P41160 22-167, looked up)
chain: B1 chain
modifications: Pluronic P85 chains on lysine amino groups through the DSP linker, partly cleaved by 6 mM L-glutathione
notes: Lep-(ss)-P85(2.1) dialysed against 6 mM L-glutathione in PBS with 20% ethanol; also called reduced form of Lep-(ss)-P85(2.1)
B7: Lep-(ss)-P85(2.1) (ligand, mouse, UniProt P41160 22-167, looked up)
chain: B1 chain
modifications: Pluronic P85 chains on lysine amino groups through the DSP (disulfide) linker; lower degree of modification; positions not determined
notes: Mixture that includes unmodified leptin
B8: Lep-(ss)-P85(1) (ligand, mouse, UniProt P41160 22-167, looked up)
chain: B1 chain
modifications: Pluronic P85 chains on lysine amino groups through the DSP (disulfide) linker; highly modified; positions not determined
notes: Mixture of unmodified leptin and leptin with 1 to several P85 chains

Experiments:
[1] = target: T1, mouse leptin receptor-Fc chimera; assay: SPR, ObR-Fc captured on protein G CM5 chip, 1:1 model (Example 3)
Procedure: […] Binding affinity of leptin or leptin-POx with leptin receptor was determined by surface plasma resonance (SPR). Protein G was immobilized on CM5 sensor chip using following procedure: 1) inject 115 μL NHS/EDC mixed solution (1:1, v/v) to activate dextran surface; 2) inject 60 μL protein G (200 μg/mL in 10 mM sodium acetate buffer, pH 4.0) to bind with the activated sensor surface; 3) inject 75 μL of 1 M ethanolamine hydrochloride, pH 8.5 to deactivate NHS-ester and remove non-specifically bound protein. […] The sensorgram in channel A was corrected by non-specific surface binding (sensorgram in channel B) and baseline draft (sensorgram of HBS-EP buffer injection in channel A) and then fitted with a 1:1 binding model as provided by BIA evaluation software. The rate constant kₐ and kd, and equilibrium association constant (KA) and dissociation constant (KD) are determined.

[2] = target: T1, mouse leptin receptor-Fc chimera; assay: SPR, ObR-Fc captured on protein G chip, 1:1 model; leptin in 1:1 mixture with free Pluronic P85; leptin mixed with free P85
Procedure: (§1) The binding affinity of leptin and its analogs was measured by surface plasma resonance (SPR) in Biacore® 3000 instrument (GE Healthcare, Piscataway, N.J.), using a method reported for leptin (Mistrik et al. (2004) Anal. Biochem., 327:271-7). Carboxymethyl dextran chip (CMS), N-hydroxysuccinimide (NHS), 1-ethyl-3-(3-dimethylaminopropyl) carbodiimide (EDC), ethanolamine-HCl, HBS-EP buffer (10 mM HEPES, 150 mM NaCl, 3 mM EDTA, 0.005% surfactant P20, pH 7.4) and protein G were all purchased from GE Healthcare. […] CMS surface response was recorded by first, immobilization of ObR-Fc (0.5 μg/mL, 15 μL in HBS-EP, 5 μL/min flow rate) in channel A following 1800 s washing (to capture 100-300 RU of ObR-Fc); second, capture of leptin or leptin-Pluronic® conjugates (0-300 nM, 100 μL in HBS-EP, flow rate 20 μL/min) and dissociation (900 s) in channel A (ObR-Fc surface) and B (protein G surface); third, regeneration of a fully active protein G surface by 5 μL glycine (10 mM, pH 2.0). […]
(§2) TABLE 3 Kinetic constants for leptin and leptin-P85 conjugates and leptin receptor interaction. The association and dissociation rate constants kₐ and kd were determined as global fitting parameters for a 1:1 binding model. […] The equilibrium dissociation constant KD was determined as kd/kₐ. […]

[3] = target: T1, mouse leptin receptor-Fc chimera; assay: SPR (Biacore 3000), ObR-Fc captured on protein G chip, 1:1 model, KD = kd/ka
Procedure: as §1, §2

[4] = target: T1, mouse leptin receptor-Fc chimera; assay: SPR (Biacore 3000), ObR-Fc captured on protein G chip, 1:1 model
Procedure: The binding affinity of leptin and its analogs was measured by surface plasma resonance (SPR) in Biacore® 3000 instrument (GE Healthcare, Piscataway, N.J.), using a method reported for leptin (Mistrik et al. (2004) Anal. Biochem., 327:271-7). Carboxymethyl dextran chip (CMS), N-hydroxysuccinimide (NHS), 1-ethyl-3-(3-dimethylaminopropyl) carbodiimide (EDC), ethanolamine-HCl, HBS-EP buffer (10 mM HEPES, 150 mM NaCl, 3 mM EDTA, 0.005% surfactant P20, pH 7.4) and protein G were all purchased from GE Healthcare. To prepare the sensor chip, protein G was immobilized on CMS (Channel A and B) by consequent injection of 1) 115 μL NHS/EDC (1:1, v/v) (to activate dextran surface); 2) 60 μL protein G (200 μg/mL, 10 mM sodium acetate buffer, pH 4.0) (to bound the surface at 2000-3000 resonance units (RU)), and 3) 75 μl of 1 M ethanolamine hydrochloride, pH 8.5 (to deactivate NHS-ester and remove electrostatically bound protein). CMS surface response was recorded by first, immobilization of ObR-Fc (0.5 μg/mL, 15 μL in HBS-EP, 5 μL/min flow rate) in channel A following 1800 s washing (to capture 100-300 RU of ObR-Fc); second, capture of leptin or leptin-Pluronic® conjugates (0-300 nM, 100 μL in HBS-EP, flow rate 20 μL/min) and dissociation (900 s) in channel A (ObR-Fc surface) and B (protein G surface); third, regeneration of a fully active protein G surface by 5 μL glycine (10 mM, pH 2.0). The data (sensorgrams in channel A) were corrected by non-specific protein G surface binding (sensorgrams in channel B) and baseline draft (sensorgrams of HBS-EP injection in channel A) which might occur due to a slow dissociation of between ObR-Fc and protein G and then fitted to a 1:1 binding model using BIA evaluation software.
TABLE 3 Kinetic constants for leptin and leptin-P85 conjugates and leptin receptor interaction. The association and dissociation rate constants kₐ and kd were determined as global fitting parameters for a 1:1 binding model. The kinetics of the interaction with leptin, the mixture of leptin and P85, Lep-(ss)-P85(1) and its reduced form, Lep-(ss)-P85(2.1) and its reduced form, Lep-(nc)-P85(2) and purified Lep-(ss)-P85(2.3) from HIC, 33 min were analyzed. The equilibrium dissociation constant KD was determined as kd/kₐ. Numbers represent averaged values from three independent measurements on the same ObR-Fc surface.

[5] = target: T1, mouse leptin receptor-Fc chimera; assay: SPR, ObR-Fc captured on protein G chip, 1:1 model; leptin in 1:1 mixture with free Pluronic P85
Procedure: as §1, §2

[6] = target: T1, mouse leptin receptor-Fc chimera; assay: SPR, ObR-Fc captured on protein G chip; leptin in 1:1 mixture with free Pluronic P85
Text: Next, the binding of the leptin-Pluronic® conjugates with the chimera leptin receptor (ObR-Fc) was studied. ObR-Fc contains the human […] Fc fragment and the mouse ObR N-terminus that shares the same sequence as the extracellular domains of the putative leptin transporter at the BBB (ObRa) and the leptin receptor (ObRb) expressed in the brain. The Fc fragment of ObR-Fc was used to reversibly bind to protein G that was pre-immobilized onto the sensor chip. The ObR N-terminus of ObR-Fc adsorbed onto the sensor chip was used for sample detection. The SPR association and dissociation profiles were recorded for native leptin, a mixture of leptin and P85, Lep-(ss)-P85(1), Lep-(ss)-P85(2.1), Lep-(ss)-P85(2.3) (fractions purified by HIC and collected at 33 min) and Lep-(nc)-P85(2) (FIG. 8 and Table 3). […] The KD values for the N-terminal modified Lep-(nc)-P85(2), which also had low modification degree, were similar to those observed for Lep-(ss)-P85(2.1) without HIC purification.

Binder | koff [4] [s⁻¹] | kon [4] [M⁻¹ s⁻¹] | Kd [4] [nM] | other results
B1 | 0.000208 | 2.09e+06 | – | Ka [1]: 1.1e+09 M⁻¹; Kd [1]: 0.96 nM; koff [1]: 0.00051 s⁻¹; kon [1]: 530000 M⁻¹ s⁻¹; Kd [2]: 0.337 nM; Kd [3]: 0.1 nM; koff [5]: 0.000368 s⁻¹; kon [5]: 1.09e+06 M⁻¹ s⁻¹; fold decrease of binding affinity against native leptin alone [6]: ~3 fold
B2 | – | – | – | Ka [1]: 1.8e+07 M⁻¹; Kd [1]: 56 nM; koff [1]: 0.00073 s⁻¹; kon [1]: 13000 M⁻¹ s⁻¹
B3 | 0.000292 | 311000 | 1.21 | –
B4 | 0.000247 | 77000 | 3.8 | –
B5 | 0.00079 | 49000 | 16.4 | –
B6 | 0.000407 | 195000 | 2.09 | –
B7 | 0.000355 | 113000 | 3.2 | –
B8 | 0.000642 | 12000 | 57.1 | –
